Data: US20230265151A1, “GIP/GLP1 CO-AGONIST COMPOUNDS” (priority 2020, published 2023)
Positions count from the first letter of the chain named.

T1: human GIP receptor (human, UniProt P48546 22-466)
T1 sequence (looked up): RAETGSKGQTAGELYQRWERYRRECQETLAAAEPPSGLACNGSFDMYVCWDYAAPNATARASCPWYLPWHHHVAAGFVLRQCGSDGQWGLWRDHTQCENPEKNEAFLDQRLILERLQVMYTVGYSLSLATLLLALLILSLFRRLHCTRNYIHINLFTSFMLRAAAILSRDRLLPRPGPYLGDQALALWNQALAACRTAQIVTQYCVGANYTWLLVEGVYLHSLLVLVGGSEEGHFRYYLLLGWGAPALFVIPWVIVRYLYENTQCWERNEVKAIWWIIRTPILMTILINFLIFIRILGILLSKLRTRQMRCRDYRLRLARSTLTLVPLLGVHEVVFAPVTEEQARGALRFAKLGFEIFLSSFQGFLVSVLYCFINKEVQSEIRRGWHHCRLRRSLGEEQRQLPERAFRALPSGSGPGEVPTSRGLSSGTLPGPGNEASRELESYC

B1: Example 218 (peptide)
peptide: YXEGTXTSDXXIXLDXIAQXKFIKXLIEGGPSSGAPPPS
modifications: Y-Aib-EGT-αMeF(2F)-TSD-4Pal-Aib-I-αMeL-LD-Orn-IAQ-Aib-K((2-[2-(2-Amino-ethoxy)-ethoxy]-acetyl)2-(γ-Glu)-CO-(CH2)12-CO2H)FIK((2-[2-(2-Amino-ethoxy)-ethoxy]-acetyl)2-(γ-Glu)-CO-(CH2)12-CO2H)-αMeY-LIEGGPSSGAPPPS-NH2
B2: Example 222 (peptide)
peptide: B1 peptide with X11S, K24X, E28K
modifications: Y-Aib-EGT-αMeF(2F)-TSD-4Pal-SI-αMeL-LD-Orn-IAQ-Aib-K((2-[2-(2-Amino-ethoxy)-ethoxy]-acetyl)2-CO-(CH2)12-CO2H)Fl-(D-Glu)-αMeY-LIK((2-[2-(2-Amino-ethoxy)-ethoxy]-acetyl)2-CO-(CH2)12-CO2H)GGPSSGAPPPS-NH2 …
B3: Example 249 (peptide)
peptide: B1 peptide with X11S, I17K, K24X
modifications: Y-Aib-EGT-αMeF(2F)-TSD-2Nal-SI-αMeL-LD-Orn-K((2-[2-(2-Amino-ethoxy)-ethoxy]-acetyl)2-(γ-Glu)-CO-(CH2)12-CO2H)AQ-Aib-K((2-[2-(2-Amino-ethoxy)-ethoxy]-acetyl)2-(γ-Glu)-CO-(CH2)12-CO2H)FI-(D-Glu)-αMeY-LIEGGPSSGAPPPS-NH2
B4: Example 219 (peptide)
peptide: B1 peptide with K21E, E28K
modifications: Y-Aib-EGT-αMeF(2F)-TSD-4Pal-Aib-I-αMeL-LD-Orn-IAQ-Aib-EFIK((2-[2-(2-Amino-ethoxy)-ethoxy]-acetyl)2-(γ-Glu)-CO-(CH2)12-CO2H)-αMeY-LIK((2-[2-(2-Amino-ethoxy)-ethoxy]-acetyl)2-(γ-Glu)-CO-(CH2)12-CO2H)GGPSSGAPPPS-NH2
B5: Example 226 (peptide)
peptide: B1 peptide with X11S, K21E, E28K
modifications: Y-Aib-EGT-αMeF(2F)-TSD-4Pal-SI-αMeL-LD-Orn-IAQ-Aib-EFIK((2-[2-(2-Amino-ethoxy)-ethoxy]-acetyl)3-(γ-Glu)-CO-(CH2)12-CO2H)-αMeY-LIK((2-[2-(2-Amino-ethoxy)-ethoxy]-acetyl)3-(γ-Glu)-CO-(CH2)12-CO2H)GGPSSGAPPPS-NH2
B6: Example 233 (peptide)
peptide: B1 peptide with X10Y, K21E, E28K
modifications: Y-Aib-EGT-αMeF(2F)-TSDY-Aib-I-αMeL-LD-Orn-IAQ-Aib-EFIK((2-[2-(2-Amino-ethoxy)-ethoxy]-acetyl)2-(γ-Glu)-CO-(CH2)12-CO2H)-αMeY-LIK((2-[2-(2-Amino-ethoxy)-ethoxy]-acetyl)2-(γ-Glu)-CO-(CH2)12-CO2H)GGPSSGAPPPS-NH2
B7: Example 252 (peptide)
peptide: B1 peptide with X11S, K21E, E28K
modifications: Y-Aib-EGT-αMeF(2F)-TSD-2Nal-SI-αMeL-LD-Orn-IAQ-Aib-EFIK((2-[2-(2-Amino-ethoxy)-ethoxy]-acetyl)2-(γ-Glu)-CO-(CH2)12-CO2H)-αMeY-LIK((2-[2-(2-Amino-ethoxy)-ethoxy]-acetyl)2-(γ-Glu)-CO-(CH2)12-CO2H)GGPSSGAPPPS-NH2
B8: Example 239 (peptide)
peptide: B1 peptide with X10Y, K21E, E28K
modifications: Y-Aib-EGT-αMeF(2F)-TSDY-Aib-I-αMeL-LD-Orn-IAQ-Aib-EFIK((2-[2-(2-Amino-ethoxy)-ethoxy]-acetyl)2-(γ-Glu)-(10-(4-carboxyphenoxy)decanoyl))-αMeY-LIK((2-[2-(2-Amino-ethoxy)-ethoxy]-acetyl)2-(γ-Glu)-(10-(4-carboxyphenoxy)decanoyl))GGPSSGAPPPS-NH2
B9: Example 227 (peptide)
peptide: B1 peptide with X11S, K24X, E28K
modifications: Y-Aib-EGT-αMeF(2F)-TSD-4Pal-SI-αMeL-LD-Orn-IAQ-Aib-K((2-[2-(2-Amino-ethoxy)-ethoxy]-acetyl)3-(γ-Glu)-CO-(CH2)12-CO2H)FI-(D-Glu)-αMeY-LIK((2-[2-(2-Amino-ethoxy)-ethoxy]-acetyl)3-(γ-Glu)-CO-(CH2)12-CO2H)GGPSSGAPPPS-NH2
B10: Example 255 (peptide)
peptide: B1 peptide with X11S, I17K, K24X
modifications: Y-Aib-EGT-αMeF(2F)-TSD-2Nal-SI-αMeL-LD-Orn-K((2-[2-(2-Amino-ethoxy)-ethoxy]-acetyl)2-CO-(CH2)12-CO2H)AQ-Aib-K((2-[2-(2-Amino-ethoxy)-ethoxy]-acetyl)2-CO-(CH2)12-CO2H)FI-(D-Glu)-αMeY-LIEGGPSSGAPPPS-NH2 …
B11: Example 253 (peptide)
peptide: B1 peptide with X11S, K24X, E28K
modifications: Y-Aib-EGT-αMeF(2F)-TSD-2Nal-SI-αMeL-LD-Orn-IAQ-Aib-K((2-[2-(2-Amino-ethoxy)-ethoxy]-acetyl)2-(γ-Glu)-CO-(CH2)12-CO2H)Fl-(D-Glu)-αMeY-LIK((2-[2-(2-Amino-ethoxy)-ethoxy]-acetyl)2-(γ-Glu)-CO-(CH2)12-CO2H)GGPSSGAPPPS-NH2
B12: Example 246 (peptide)
peptide: B1 peptide with K21E, E28K
modifications: Y-Aib-EGT-αMeF(2F)-TSD-4Pal-Aib-I-αMeL-LD-Orn-IAQ-Aib-EFIK((2-[2-(2-Amino-ethoxy)-ethoxy]-acetyl)2-(γ-Glu)-(10-(4-carboxyphenoxy)decanoyl))-αMeY-LIK((2-[2-(2-Amino-ethoxy)-ethoxy]-acetyl)2-(γ-Glu)-(10-(4-carboxyphenoxy)decanoyl))GGPSSGAPPPS-NH2
B13: Example 221 (peptide)
peptide: YXEGTXTSDXSIXLDXKAQXEFIXXLIEGGPSSGAPPPSK
modifications: Y-Aib-EGT-αMeF(2F)-TSD-4Pal-SI-αMeL-LD-Orn-K((2-[2-(2-Amino-ethoxy)-ethoxy]-acetyl)2-CO-(CH2)12-CO2H)AQ-Aib-EFI-(D-Glu)-αMeY-LIEGGPSSGAPPPSK((2-[2-(2-Amino-ethoxy)-ethoxy]-acetyl)2-CO-(CH2)12-CO2H)-NH2
B14: Example 228 (peptide)
peptide: B13 peptide with K17I, E21K
modifications: Y-Aib-EGT-αMeF(2F)-TSD-4Pal-SI-αMeL-LD-Orn-IAQ-Aib-K((2-[2-(2-Amino-ethoxy)-ethoxy]-acetyl)3-(γ-Glu)-CO-(CH2)12-CO2H)FI-(D-Glu)-αMeY-LIEGGPSSGAPPPSK((2-[2-(2-Amino-ethoxy)-ethoxy]-acetyl)3-(γ-Glu)-CO-(CH2)12-CO2H)-NH2
B15: Example 257 (peptide)
peptide: B13 peptide
modifications: Y-Aib-EGT-αMeF(2F)-TSD-2Nal-SI-αMeL-LD-Orn-K((2-[2-(2-Amino-ethoxy)-ethoxy]-acetyl)2-CO-(CH2)12-CO2H)AQ-Aib-EFI-(D-Glu)-αMeY-LIEGGPSSGAPPPSK((2-[2-(2-Amino-ethoxy)-ethoxy]-acetyl)2-CO-(CH2)12-CO2H)-NH2
B16: Example 251 (peptide)
peptide: B13 peptide
modifications: Y-Aib-EGT-αMeF(2F)-TSD-2Nal-SI-αMeL-LD-Orn-K((2-[2-(2-Amino-ethoxy)-ethoxy]-acetyl)2-(γ-Glu)-CO-(CH2)12-CO2H)AQ-Aib-EFI-(D-Glu)-αMeY-LIEGGPSSGAPPPSK((2-[2-(2-Amino-ethoxy)-ethoxyl-acetyl)2-(γ-Glu)-CO-(CH2)12-CO2H)-NH2
B17: Example 225 (peptide)
peptide: B13 peptide
modifications: Y-Aib-EGT-αMeF(2F)-TSD-4Pal-SI-αMeL-LD-Orn-K((2-[2-(2-Amino-ethoxy)-ethoxy]-acetyl)3-(γ-Glu)-CO-(CH2)12-CO2H)AQ-Aib-EFI-(D-Glu)-αMeY-LIEGGPSSGAPPPSK((2-[2-(2-Amino-ethoxy)-ethoxy]-acetyl)3-(γ-Glu)-CO-(CH2)12-CO2H)-NH2
B18: Example 254 (peptide)
peptide: B13 peptide with K17I, E21K
modifications: Y-Aib-EGT-αMeF(2F)-TSD-2Nal-SI-αMeL-LD-Orn-IAQ-Aib-K((2-[2-(2-Amino-ethoxy)-ethoxy]-acetyl)2-(γ-Glu)-CO-(CH2)12-CO2H)FI-(D-Glu)-αMeY-LIEGGPSSGAPPPSK((2-[2-(2-Amino-ethoxy)-ethoxyl-acetyl)2-(γ-Glu)-CO-(CH2)12-CO2H)-NH2

molecular target: human glucagon receptor (human, UniProt P47871 26-477); test: cell-based or functional assay

B1 and B2 cannot be ordered by “cAMP EC50 (1.0% HSA)” value: greater than 9950 nM for the first, greater than 9950 nM for the second.

B3 and B4 cannot be ordered by “cAMP EC50 (1.0% HSA)” value: greater than 9950 nM for the first, greater than 9950 nM for the second.

B5 and B6 cannot be ordered by “cAMP EC50 (1.0% HSA)” value: greater than 9950 nM for the first, greater than 9950 nM for the second.

B7 and B8 cannot be ordered by “cAMP EC50 (1.0% HSA)” value: greater than 9950 nM for the first, greater than 9950 nM for the second.

B9 and B10 cannot be ordered by “cAMP EC50 (1.0% HSA)” value: greater than 9950 nM for the first, greater than 9950 nM for the second.

B11 and B12 cannot be ordered by “cAMP EC50 (1.0% HSA)” value: greater than 9950 nM for the first, greater than 9950 nM for the second.

B13 and B14 cannot be ordered by “cAMP EC50 (1.0% HSA)” value: greater than 9950 nM for the first, greater than 9950 nM for the second.

B15 and B16 cannot be ordered by “cAMP EC50 (1.0% HSA)” value: greater than 9950 nM for the first, greater than 9950 nM for the second.

B17 and B18 cannot be ordered by “cAMP EC50 (1.0% HSA)” value: greater than 9950 nM for the first, greater than 9950 nM for the second.

molecular target: human GLP-1 receptor (human, UniProt P43220 24-463); test: cell-based or functional assay

First: B1
Second: B2
The “cAMP EC50 (1.0% HSA)” value of the first is 2.7-fold higher: 36.6 nM for the first, 13.8 nM for the second.

Going from B3 to B4, the “cAMP EC50 (1.0% HSA)” value falls from 51.6 nM to 25.9 nM (2-fold).

Going from B5 to B6, the “cAMP EC50 (1.0% HSA)” value rises from 11.3 nM to 56.7 nM (5-fold).

Compared with B7, B8 is 5.2-fold lower in “cAMP EC50 (1.0% HSA)” value: 131 nM for the first, 25.2 nM for the second.

Going from B9 to B10, the “cAMP EC50 (1.0% HSA)” value falls from 41.8 nM to 13.7 nM (3.1-fold).

Compared with B11, B12 is 8.4-fold lower in “cAMP EC50 (1.0% HSA)” value: 192 nM for the first, 22.9 nM for the second.

Going from B13 to B14, the “cAMP EC50 (1.0% HSA)” value rises from 17.9 nM to 42 nM (2.3-fold).

B15 and B16 are within 1.5-fold of each other in “cAMP EC50 (1.0% HSA)” value: 46.3 nM for the first, 51 nM for the second.

Going from B17 to B18, the “cAMP EC50 (1.0% HSA)” value rises from 51.6 nM to 211 nM (4.1-fold).

Going from B1 to B2, the “cAMP Emax (1.0% HSA)” value falls from 121% to 117%.

First: B14
Second: B18
The “cAMP Emax (1.0% HSA)” value of the first is lower: 119% for the first, 122% for the second.

molecular target: T1, human GIP receptor; test: cell-based or functional assay

Compared with B1, B2 is 1.6-fold lower in “cAMP EC50 (1.0% HSA)” value: 3.27 nM for the first, 2.1 nM for the second.

Going from B3 to B4, the “cAMP EC50 (1.0% HSA)” value falls from 5.88 nM to 2.86 nM (2.1-fold).

B5 and B6 are within 1.5-fold of each other in “cAMP EC50 (1.0% HSA)” value: 4.86 nM for the first, 6.08 nM for the second.

Going from B7 to B8, the “cAMP EC50 (1.0% HSA)” value falls from 29.9 nM to 5.46 nM (5.5-fold).

B9 and B10 are within 1.5-fold of each other in “cAMP EC50 (1.0% HSA)” value: 1.59 nM for the first, 2.27 nM for the second.

First: B11
Second: B12
The “cAMP EC50 (1.0% HSA)” value of the first is 13-fold higher: 21.7 nM for the first, 1.63 nM for the second.

First: B13
Second: B14
The “cAMP EC50 (1.0% HSA)” value of the first is 4-fold lower: 0.838 nM for the first, 3.37 nM for the second.

Going from B15 to B16, the “cAMP EC50 (1.0% HSA)” value rises from 5.61 nM to 14.3 nM (2.5-fold).

Going from B17 to B18, the “cAMP EC50 (1.0% HSA)” value rises from 1.81 nM to 16.8 nM (9.3-fold).

Compared with B1, B6 is lower in “cAMP Emax (1.0% HSA)” value: 95.9% for the first, 91.4% for the second.

Going from B13 to B14, the “cAMP Emax (1.0% HSA)” value rises from 67.4% to 83.3%.

Compared with B15, B16 is lower in “cAMP Emax (1.0% HSA)” value: 72.2% for the first, 71.2% for the second.

First: B17
Second: B18
The “cAMP Emax (1.0% HSA)” value of the first is lower: 67.5% for the first, 68.5% for the second.
